Experimental data as given in PMC4351142 (Structure (London, England : 1993), 2015).
Each block holds one molecule with its values, some of them ahead of it.

Assays:
[1] = molecular target: CHIP-TPR domain (HsCHIP 21-154) (human) (UniProt Q9UNE7); assay: NMR titration
[2] = molecular target: T1, CHIP-TPR domain (HsCHIP 21-154) (human, UniProt Q9UNE7 21-154); assay: crystal structure
T1 sequence (looked up): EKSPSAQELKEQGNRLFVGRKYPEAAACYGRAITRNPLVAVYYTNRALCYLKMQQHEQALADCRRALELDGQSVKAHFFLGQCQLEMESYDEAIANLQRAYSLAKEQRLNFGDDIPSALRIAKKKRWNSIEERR

- Kd [1]: > 100 µM
Molecule: Hsc70-lid-tail-ΔGPTIEEVD (domain or fragment)

- binding result [2]: binds
B1: HsHsc70_(541-646)Δ_(626-638) (domain or fragment, human, UniProt P11142 541-646, looked up)
chain: SLESYAFNMKATVEDEKLQGKINDEDKQKILDKCNEIINWLDKNQTAEKEEFEHQQKELEKVCNPIITKLYQSAGGMPGGMPGGFGPTIEEVD
